Reference: the supplement of paper PMC12042874
± gives the uncertainty stated by the source.

experiment: amyloid nucleation score (Sup35N fusion, yeast selection) (log enrichment); library NNK2; higher = more nucleation; inactive = no reads after selection
Method in brief: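 Random libraries were run with three technical output replicates. In each, psi-negative yeast expressing Sup35N fused to peptides of 20 random codons were induced 24 hours with 100 μM copper sulfate and grown 7 days at 30°C on medium lacking adenine and uracil, and input and output plasmid inserts were Illumina-sequenced. The nucleation score is the DiMSum log enrichment of output over input reads, centred on the mode score of non-aggregating sequences, and sequences under 100 input reads were excluded.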

| Substance | amyloid nucleation score |
| --- | --- |
| TSGLILL | -0.301 ± 0.37 |
| IVMFQNFVQMDVNYCCFLEV | 6.768 ± 0.04 |
| AYWYSQRAMGFKHSLFLT | -0.921 ± 0.41 |
| TTLVSSGYKYFCDVFTGVNA | -1.45 ± 0.63 |
| ASVCHTLVGILYDDEGARTR | 0.85 ± 0.4 |
| KRDRIAFPMEIDDIIKAWM | -0.929 ± 0.55 |
| SSRRV | 0.497 ± 0.56 |
| NNINLTYRLYSVLDHYKLYE | 2.66 ± 0.088 |
| EMVRTTMSWPYMFS | -0.47 ± 1.1 |
| VYHSGMTLFNFCCSMHLVEL | 9.22 ± 0.041 |
| MRSDYTSWVWVCVFMLTLGV | -0.679 ± 0.32 |
| KDGKALT | inactive |
| GMRGNSYAVSYRDIVVLAPC | -0.007 ± 0.55 |
| AFEDVDVQS | 0.94 ± 0.32 |
| YYLICST | 0.023 ± 0.47 |
| FLISSMHWYCHKPCWGFLGQ | -0.569 ± 0.79 |
| YLPVLEVVPTNGVPHDRFWS | 1.08 ± 0.29 |
| VHNCCTVVSLRREDESVYTN | -0.146 ± 0.38 |
| TNCSYMMYAAKVSQKYPPFP | -0.567 ± 1.1 |
| DFINIPSVFIIYMK | 1.73 ± 0.13 |
| PIRLQIWVWPVPKR | 0.8 ± 0.55 |
| RKWYGQTSARADVAVS | 0.232 ± 0.25 |

| Substance | amyloid nucleation score |
| --- | --- |
| QGEEVGWFRFGRKSGAINMV | 0.076 ± 0.36 |
| NEDTAGTRRLHPRYGVADWS | 0.88 ± 0.18 |
| VGGYDNLSILISTLQSSIFS | -0.779 ± 0.37 |
| CFRNWACMSSQRYCMVVRGN | -1.58 ± 0.54 |
| IITMLGQEWAFGKLFDPLTL | 0.524 ± 0.34 |
| LNTNPARYLPGMFNPRSKYL | -0.324 ± 1.1 |
| GCTGGRIK | -0.088 ± 0.49 |
| RYRTMSTRHPAYGVGGLLLM | 0.544 ± 0.36 |
| MIAVV | 0.861 ± 0.2 |
| GCHSFLPGYFTWNYDSDNYF | inactive |
| EFYFG | 0.599 ± 0.8 |
| IGLHVWHLSLKGSSDLSGTV | 1.85 ± 0.12 |
| ILRYSFCRMLFAPRVTLIRF | 1.74 ± 0.25 |
| YSNSGVTWLRMHNVMFCGEG | -0.122 ± 0.32 |
| VSSETSGFMIGYLYVDLNGV | -0.814 ± 0.4 |
| SSTYIERGLSHGKDRT | 0.731 ± 0.46 |
| FICVCIVKNKGMGRPCN | 2.72 ± 0.1 |
| CSRGP | 0.534 ± 0.64 |
| KAKYTTILCCIDRCGCIGQY | 8.613 ± 0.046 |
| FEQRGVTSRLCSPLSYEERM | -0.82 ± 0.3 |
| YYMVSP | -0.093 ± 0.33 |
| SGIHEIFESVFFNTYFRRMT | -0.549 ± 1 |

| Substance | amyloid nucleation score |
| --- | --- |
| RSSKTNWWTGEISVPYGYWM | 0.368 ± 0.47 |
| DIPLSSAKAYI | 0.443 ± 0.8 |
| DMCDYQSVGF | inactive |
| LVQGNTFE | 1.19 ± 0.44 |
| FKFVIYRFIFHPSEVPKGD | 0.057 ± 1.1 |
| TLRVS | -0.207 ± 0.36 |
| PFGKPVYLIFPPGMLVIFRA | -0.603 ± 1.1 |
| WNEIE | inactive |
| DCMTMINLICNGMPAICRMT | 0.445 ± 0.18 |
| RLMCVLMGYRGSSGVDCRSA | 0.185 ± 0.27 |
| LDSSYY | inactive |
| LDGITSIDG | -1.15 ± 0.74 |
| SYSMLIMFFFVIKYRSDFQL | inactive |
| VVVLFIEVLNCYLRGKVKCM | -0.802 ± 0.39 |
| GRMNTLDTFLTMAISDDASF | -0.147 ± 0.46 |
| INWSHRGIISLDERMIIQYV | 0.154 ± 0.65 |
| KVRTLINLRSRVTLRYDLSI | -0.237 ± 0.24 |
| GTHPCLQVCDDRGDWLLA | 0.868 ± 0.29 |
| LWQLPIILWFLRNCVMRNPA | -0.723 ± 0.79 |
| FKINESSYVLWDGSSYCRAG | -0.711 ± 1.1 |
| AHIVGMSSSWRLKRYISIES | 0.768 ± 0.43 |
| AFVSSQVSTYYNFRTKDYSW | 3.68 ± 0.098 |

| Substance | amyloid nucleation score |
| --- | --- |
| NGGSGNQVMLEVTNLVFK | 5.295 ± 0.044 |
| VTSLDFKFNVGEY | 0.832 ± 0.67 |
| CVMIESLKVFISPWLASRIR | -0.291 ± 0.65 |
| RPGMARVFNAA | 0.673 ± 0.36 |
| KSMFRTNLYIIILQSSTRFQ | -1.06 ± 0.76 |
| KLKCHMSESLKWIGAVKSRR | 0.776 ± 0.43 |
| GPRSPAA | 0.613 ± 0.34 |
| SSEEFNVCYYGDPYKSVRTR | 0.341 ± 0.47 |
| AWLYFVLFNRVTCCMTNVEE | 9.571 ± 0.037 |
| RLYHPSQWGDLILCIFVMEA | -0.343 ± 0.62 |
| IAHCCFGQF | 7.634 ± 0.074 |
| TGLVFYSSRFYVTVSMVLKE | inactive |
| GPVLGEFVEGSGNANGDEQV | -0.107 ± 1 |
| GYLSGYLRGSNILGHERYRY | -0.85 ± 0.32 |
| LLTCEASRTPARSQLLASEG | 0.851 ± 0.4 |
| RCRPLCI | -0.299 ± 1 |
| VLDHDGVVVWNFFPHMYSDP | 4.63 ± 0.05 |
| LSDGN | -1.04 ± 0.76 |
| LLPMGYAYISYSLLGNYMSG | -1.37 ± 0.48 |
| GGIRYVSVFQIFASCCFSRV | 8.977 ± 0.05 |
